Laboratory results as given in IntAct's records for PubMed 11734542.

B1: Protein phosphatase EYA1 (Mus musculus), P97767 (parent)
chain: MEMQDLTSPHSRLSGSSESPSGPKLDSSHINSTSMTPNGTEVKTEPMSSSEIASTAADGSLDSFSGSALGSSSFSPRPAHPFSPPQIYPSKSYPHILPTPSSQTMAAYGQTQFTTGMQQATAYATYPQPGQPYGISSYGALWAGIKTESGLSQSQSPGQTGFLSYGTSFGTPQPGQAPYSYQMQGSSFTTSSGLYSGNNSLTNSSGFNSSQQDYPSYPGFGQGQYAQYYNSSPYPAHYMTSSNTSPTTPSTNATYQLQEPPSGVTSQAVTDPTAEYSTIHSPSTPIKETDSERLRRGSDGKSRGRGRRNNNPSPPPDSDLERVFIWDLDETIIVFHSLLTGSYANRYGRDPPTSVSLGLRMEEMIFNLADTHLFFNDLEECDQVHIDDVSSDDNGQDLSTYNFGTDGFPAAATSANLCLATGVRGGVDWMRKLAFRYRRVKEIYNTYKNNVGGLLGPAKREAWLQLRAEIEALTDSWLTLALKALSLIHSRTNCVNILVTTTQLIPALAKVLLYGLGIVFPIENIYSATKIGKESCFERIIQRFGRKVVYVVIGDGVEEEQGAKKHAMPFWRVSSHSDLMALHHALELEYL
partner: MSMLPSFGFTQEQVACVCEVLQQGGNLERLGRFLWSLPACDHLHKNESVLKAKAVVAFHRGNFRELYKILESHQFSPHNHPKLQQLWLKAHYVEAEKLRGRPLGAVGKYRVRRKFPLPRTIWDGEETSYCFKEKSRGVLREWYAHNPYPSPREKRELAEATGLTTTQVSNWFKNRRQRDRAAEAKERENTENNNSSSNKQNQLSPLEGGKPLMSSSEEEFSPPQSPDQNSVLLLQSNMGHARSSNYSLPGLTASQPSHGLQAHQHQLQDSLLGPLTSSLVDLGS
B2: Protein phosphatase EYA1 (Mus musculus), P97767 (parent)
chain: B1 chain
partner: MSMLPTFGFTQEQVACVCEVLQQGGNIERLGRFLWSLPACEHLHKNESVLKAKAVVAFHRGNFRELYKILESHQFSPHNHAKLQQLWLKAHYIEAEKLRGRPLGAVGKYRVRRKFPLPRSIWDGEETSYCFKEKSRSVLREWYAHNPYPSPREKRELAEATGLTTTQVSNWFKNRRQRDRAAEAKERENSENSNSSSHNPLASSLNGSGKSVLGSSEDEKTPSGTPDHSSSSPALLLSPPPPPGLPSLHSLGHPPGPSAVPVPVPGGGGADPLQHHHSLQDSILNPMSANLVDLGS

Variants of: B1
Details: with six1_mouse Six1, Q62231

effect of a mutation on the interaction	Variant
disrupting interaction	MEMQDLTSPHSRLSGSSESPSGPKLDSSHINSTSMTPNGTEVKTEPMSSSEIASTAADGSLDSFSGSALGSSSFSPRPAHPFSPPQIYPSKSYPHILPTPSSQTMAAYGQTQFTTGMQQATAYATYPQPGQPYGISSYGALWAGIKTESGLSQSQSPGQTGFLSYGTSFGTPQPGQAPYSYQMQGSSFTTSSGLYSGNNSLTNSSGFNSSQQDYPSYPGFGQGQYAQYYNSSPYPAHYMTSSNTSPTTPSTNATYQLQEPPSGVTSQAVTDPTAEYSTIHSPSTPIKETDSERLRRGSDGKSRGRGRRNNNPSPPPDSDLERVFIWDLDETIIVFHSLLTGSYANRYGRDPPTSVSLGLRMEEMIFNLADTHLFFNDLEECDQVHIDDVSSDDNGQDLSTYNFGTDGFPAAATSANLCLATGVRGGVDWMRKLAFRYRRVKEIYNTYKNNVGGLLGPAKREAWLQLRAEIEALTDSWLTLALKALSLIHSRTNCVNILVTTTQRIPALAKVLLYGLGIVFPIENIYSATKIGKESCFERIIQRFGRKVVYVVIGDGVEEEQGAKKHAMPFWRVSSHSDLMALHHALELEYL [L504R]
disrupting interaction	MEMQDLTSPHSRLSGSSESPSGPKLDSSHINSTSMTPNGTEVKTEPMSSSEIASTAADGSLDSFSGSALGSSSFSPRPAHPFSPPQIYPSKSYPHILPTPSSQTMAAYGQTQFTTGMQQATAYATYPQPGQPYGISSYGALWAGIKTESGLSQSQSPGQTGFLSYGTSFGTPQPGQAPYSYQMQGSSFTTSSGLYSGNNSLTNSSGFNSSQQDYPSYPGFGQGQYAQYYNSSPYPAHYMTSSNTSPTTPSTNATYQLQEPPSGVTSQAVTDPTAEYSTIHSPSTPIKETDSERLRRGSDGKSRGRGRRNNNPSPPPDSDLERVFIWDLDETIIVFHSLLTGSYANRYGRDPPTSVSLGLRMEEMIFNLADTHLFFNDLEECDQVHIDDVSSDDNGQDLSTYNFGTDGFPAAATSANLCLATGVRGGVDWMRKLAFRYRRVKEIYNTYKNNVGGLLGPAKREAWLQLRAEIEALTDSWLTLALKALPLIHSRTNCVNILVTTTQLIPALAKVLLYGLGIVFPIENIYSATKIGKESCFERIIQRFGRKVVYVVIGDGVEEEQGAKKHAMPFWRVSSHSDLMALHHALELEYL [S486P]
disrupting interaction	MEMQDLTSPHSRLSGSSESPSGPKLDSSHINSTSMTPNGTEVKTEPMSSSEIASTAADGSLDSFSGSALGSSSFSPRPAHPFSPPQIYPSKSYPHILPTPSSQTMAAYGQTQFTTGMQQATAYATYPQPGQPYGISSYGALWAGIKTESGLSQSQSPGQTGFLSYGTSFGTPQPGQAPYSYQMQGSSFTTSSGLYSGNNSLTNSSGFNSSQQDYPSYPGFGQGQYAQYYNSSPYPAHYMTSSNTSPTTPSTNATYQLQEPPSGVTSQAVTDPTAEYSTIHSPSTPIKETDSERLRRGSDGKSRGRGRRNNNPSPPPDSDLERVFIWDLDKTIIVFHSLLTGSYANRYGRDPPTSVSLGLRMEEMIFNLADTHLFFNDLEECDQVHIDDVSSDDNGQDLSTYNFGTDGFPAAATSANLCLATGVRGGVDWMRKLAFRYRRVKEIYNTYKNNVGGLLGPAKREAWLQLRAEIEALTDSWLTLALKALSLIHSRTNCVNILVTTTQLIPALAKVLLYGLGIVFPIENIYSATKIGKESCFERIIQRFGRKVVYVVIGDGVEEEQGAKKHAMPFWRVSSHSDLMALHHALELEYL [E330K]

Variants of: B1
Details: with six1_mouse Six1, Q62231
Remark: another data set of the same source

effect of a mutation on the interaction	Variant
decreasing interaction	MEMQDLTSPHSRLSGSSESPSGPKLDSSHINSTSMTPNGTEVKTEPMSSSEIASTAADGSLDSFSGSALGSSSFSPRPAHPFSPPQIYPSKSYPHILPTPSSQTMAAYGQTQFTTGMQQATAYATYPQPGQPYGISSYGALWAGIKTESGLSQSQSPGQTGFLSYGTSFGTPQPGQAPYSYQMQGSSFTTSSGLYSGNNSLTNSSGFNSSQQDYPSYPGFGQGQYAQYYNSSPYPAHYMTSSNTSPTTPSTNATYQLQEPPSGVTSQAVTDPTAEYSTIHSPSTPIKETDSERLRRGSDGKSRGRGRRNNNPSPPPDSDLERVFIWDLDETIIVFHSLLTGSYANRYGRDPPTSVSLGLRMEEMIFNLADTHLFFNDLEECDQVHIDDVSSDDNGQDLSTYNFGTDGFPAAATSANLCLATGVRGGVDWMRKLAFRYRRVKEIYNTYKNNVGGLLGPAKREAWLQLRAEIEALTDSWLTLALKALSLIHSRTNCVNILVTTTQRIPALAKVLLYGLGIVFPIENIYSATKIGKESCFERIIQRFGRKVVYVVIGDGVEEEQGAKKHAMPFWRVSSHSDLMALHHALELEYL [L504R]
decreasing interaction	MEMQDLTSPHSRLSGSSESPSGPKLDSSHINSTSMTPNGTEVKTEPMSSSEIASTAADGSLDSFSGSALGSSSFSPRPAHPFSPPQIYPSKSYPHILPTPSSQTMAAYGQTQFTTGMQQATAYATYPQPGQPYGISSYGALWAGIKTESGLSQSQSPGQTGFLSYGTSFGTPQPGQAPYSYQMQGSSFTTSSGLYSGNNSLTNSSGFNSSQQDYPSYPGFGQGQYAQYYNSSPYPAHYMTSSNTSPTTPSTNATYQLQEPPSGVTSQAVTDPTAEYSTIHSPSTPIKETDSERLRRGSDGKSRGRGRRNNNPSPPPDSDLERVFIWDLDETIIVFHSLLTGSYANRYGRDPPTSVSLGLRMEEMIFNLADTHLFFNDLEECDQVHIDDVSSDDNGQDLSTYNFGTDGFPAAATSANLCLATGVRGGVDWMRKLAFRYRRVKEIYNTYKNNVGGLLGPAKREAWLQLRAEIEALTDSWLTLALKALPLIHSRTNCVNILVTTTQLIPALAKVLLYGLGIVFPIENIYSATKIGKESCFERIIQRFGRKVVYVVIGDGVEEEQGAKKHAMPFWRVSSHSDLMALHHALELEYL [S486P]
decreasing interaction	MEMQDLTSPHSRLSGSSESPSGPKLDSSHINSTSMTPNGTEVKTEPMSSSEIASTAADGSLDSFSGSALGSSSFSPRPAHPFSPPQIYPSKSYPHILPTPSSQTMAAYGQTQFTTGMQQATAYATYPQPGQPYGISSYGALWAGIKTESGLSQSQSPGQTGFLSYGTSFGTPQPGQAPYSYQMQGSSFTTSSGLYSGNNSLTNSSGFNSSQQDYPSYPGFGQGQYAQYYNSSPYPAHYMTSSNTSPTTPSTNATYQLQEPPSGVTSQAVTDPTAEYSTIHSPSTPIKETDSERLRRGSDGKSRGRGRRNNNPSPPPDSDLERVFIWDLDKTIIVFHSLLTGSYANRYGRDPPTSVSLGLRMEEMIFNLADTHLFFNDLEECDQVHIDDVSSDDNGQDLSTYNFGTDGFPAAATSANLCLATGVRGGVDWMRKLAFRYRRVKEIYNTYKNNVGGLLGPAKREAWLQLRAEIEALTDSWLTLALKALSLIHSRTNCVNILVTTTQLIPALAKVLLYGLGIVFPIENIYSATKIGKESCFERIIQRFGRKVVYVVIGDGVEEEQGAKKHAMPFWRVSSHSDLMALHHALELEYL [E330K]

Variants of: B2
Details: with six2_mouse Six2, Q62232

effect of a mutation on the interaction	Variant
decreasing interaction	MEMQDLTSPHSRLSGSSESPSGPKLDSSHINSTSMTPNGTEVKTEPMSSSEIASTAADGSLDSFSGSALGSSSFSPRPAHPFSPPQIYPSKSYPHILPTPSSQTMAAYGQTQFTTGMQQATAYATYPQPGQPYGISSYGALWAGIKTESGLSQSQSPGQTGFLSYGTSFGTPQPGQAPYSYQMQGSSFTTSSGLYSGNNSLTNSSGFNSSQQDYPSYPGFGQGQYAQYYNSSPYPAHYMTSSNTSPTTPSTNATYQLQEPPSGVTSQAVTDPTAEYSTIHSPSTPIKETDSERLRRGSDGKSRGRGRRNNNPSPPPDSDLERVFIWDLDKTIIVFHSLLTGSYANRYGRDPPTSVSLGLRMEEMIFNLADTHLFFNDLEECDQVHIDDVSSDDNGQDLSTYNFGTDGFPAAATSANLCLATGVRGGVDWMRKLAFRYRRVKEIYNTYKNNVGGLLGPAKREAWLQLRAEIEALTDSWLTLALKALSLIHSRTNCVNILVTTTQLIPALAKVLLYGLGIVFPIENIYSATKIGKESCFERIIQRFGRKVVYVVIGDGVEEEQGAKKHAMPFWRVSSHSDLMALHHALELEYL [E330K]
decreasing interaction	MEMQDLTSPHSRLSGSSESPSGPKLDSSHINSTSMTPNGTEVKTEPMSSSEIASTAADGSLDSFSGSALGSSSFSPRPAHPFSPPQIYPSKSYPHILPTPSSQTMAAYGQTQFTTGMQQATAYATYPQPGQPYGISSYGALWAGIKTESGLSQSQSPGQTGFLSYGTSFGTPQPGQAPYSYQMQGSSFTTSSGLYSGNNSLTNSSGFNSSQQDYPSYPGFGQGQYAQYYNSSPYPAHYMTSSNTSPTTPSTNATYQLQEPPSGVTSQAVTDPTAEYSTIHSPSTPIKETDSERLRRGSDGKSRGRGRRNNNPSPPPDSDLERVFIWDLDETIIVFHSLLTGSYANRYGRDPPTSVSLGLRMEEMIFNLADTHLFFNDLEECDQVHIDDVSSDDNGQDLSTYNFGTDGFPAAATSANLCLATGVRSGVDWMRKLAFRYRRVKEIYNTYKNNVGGLLGPAKREAWLQLRAEIEALTDSWLTLALKALSLIHSRTNCVNILVTTTQLIPALAKVLLYGLGIVFPIENIYSATKIGKESCFERIIQRFGRKVVYVVIGDGVEEEQGAKKHAMPFWRVSSHSDLMALHHALELEYL [G425S]
decreasing interaction	MEMQDLTSPHSRLSGSSESPSGPKLDSSHINSTSMTPNGTEVKTEPMSSSEIASTAADGSLDSFSGSALGSSSFSPRPAHPFSPPQIYPSKSYPHILPTPSSQTMAAYGQTQFTTGMQQATAYATYPQPGQPYGISSYGALWAGIKTESGLSQSQSPGQTGFLSYGTSFGTPQPGQAPYSYQMQGSSFTTSSGLYSGNNSLTNSSGFNSSQQDYPSYPGFGQGQYAQYYNSSPYPAHYMTSSNTSPTTPSTNATYQLQEPPSGVTSQAVTDPTAEYSTIHSPSTPIKETDSERLRRGSDGKSRGRGRRNNNPSPPPDSDLERVFIWDLDETIIVFHSLLTGSYANRYGRDPPTSVSLGLRMEEMIFNLADTHLFFNDLEECDQVHIDDVSSDDNGQDLSTYNFGTDGFPAAATSANLCLATGVRGGVDWMRKLAFRYRRVKEIYNTYKNNVGGLLGPAKREAWLQLRAEIEALTDSWLTLALKALPLIHSRTNCVNILVTTTQLIPALAKVLLYGLGIVFPIENIYSATKIGKESCFERIIQRFGRKVVYVVIGDGVEEEQGAKKHAMPFWRVSSHSDLMALHHALELEYL [S486P]
decreasing interaction	MEMQDLTSPHSRLSGSSESPSGPKLDSSHINSTSMTPNGTEVKTEPMSSSEIASTAADGSLDSFSGSALGSSSFSPRPAHPFSPPQIYPSKSYPHILPTPSSQTMAAYGQTQFTTGMQQATAYATYPQPGQPYGISSYGALWAGIKTESGLSQSQSPGQTGFLSYGTSFGTPQPGQAPYSYQMQGSSFTTSSGLYSGNNSLTNSSGFNSSQQDYPSYPGFGQGQYAQYYNSSPYPAHYMTSSNTSPTTPSTNATYQLQEPPSGVTSQAVTDPTAEYSTIHSPSTPIKETDSERLRRGSDGKSRGRGRRNNNPSPPPDSDLERVFIWDLDETIIVFHSLLTGSYANRYGRDPPTSVSLGLRMEEMIFNLADTHLFFNDLEECDQVHIDDVSSDDNGQDLSTYNFGTDGFPAAATSANLCLATGVRGGVDWMRKLAFRYRRVKEIYNTYKNNVGGLLGPAKREAWLQLRAEIEALTDSWLTLALKALSLIHSRTNCVNILVTTTQRIPALAKVLLYGLGIVFPIENIYSATKIGKESCFERIIQRFGRKVVYVVIGDGVEEEQGAKKHAMPFWRVSSHSDLMALHHALELEYL [L504R]
